Source: patent US20230348629A1 (BEIJING MABWORKS BIOTECH, published 2023)

T1: human TIGIT on HEK293A/human TIGIT cells (human, UniProt Q495A1 22-244)
T1 sequence: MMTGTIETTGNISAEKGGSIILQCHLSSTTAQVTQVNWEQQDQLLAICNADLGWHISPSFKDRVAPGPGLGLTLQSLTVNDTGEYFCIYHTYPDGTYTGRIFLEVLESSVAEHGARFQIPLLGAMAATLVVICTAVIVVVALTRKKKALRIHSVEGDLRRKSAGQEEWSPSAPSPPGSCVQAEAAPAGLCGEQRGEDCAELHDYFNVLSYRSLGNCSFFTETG

T2: human TIGIT-his protein (Cat #:10917-H08H, Sino Biological) (human, UniProt Q495A1 22-141)
T2 construct: Bought soluble protein; also called TIGIT molecules; not shown: his tag
T2 sequence: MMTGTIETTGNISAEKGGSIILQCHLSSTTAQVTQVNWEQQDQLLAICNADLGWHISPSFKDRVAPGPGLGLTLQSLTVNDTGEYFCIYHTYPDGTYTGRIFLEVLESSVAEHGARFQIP

T3: human VEGF-C-his molecules (Cat #:VEC-H4225, Acrobiosystems) (human, UniProt P49767 103-227, limits assumed)
T3 construct: Bought protein; not shown: his tag
T3 sequence (looked up): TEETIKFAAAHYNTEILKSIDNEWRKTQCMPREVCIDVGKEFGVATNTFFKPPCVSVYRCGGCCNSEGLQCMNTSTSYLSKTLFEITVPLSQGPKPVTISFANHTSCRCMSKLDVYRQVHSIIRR

T4: TIGIT-mFc molecules (Cat #: 10917-H38H, Sino Biological) (UniProt Q495A1 22-141)
T4 construct: not shown: mFc (mouse Fc)
T4 sequence (looked up): T2 sequence

B1: MBS310-6 (bispecific antibody, human IgG1, kappa)
heavy 1: not shown
heavy 2: not shown
light 1: not shown
light 2: EIVLTQSPGTLSLSPGERATMTCRASSSISSTYLHWYQQKPGASPKLLIYNTQNLASGVPARFSGSGSGTSYTLTISRLEPEDFAVYYCQQFGGYPLITFGAGTKLELKRTVAAPSVFIFPPSDEQLKSGTASVVCLLNNFYPREAKVQWKVDNALQSGNSQESVTEQDSKDSTYSLSSTLTLSKADYEKHKVYACEVTHQGLSSPVTKSFNRGEC
notes: two half antibodies (knob and hole) expressed in HEK-293F cells and assembled in vitro; also called asymmetrical anti-VEGF/TIGIT bispecific antibody; anti-TIGIT/VEGF bispecific antibody
B2: MBS310-4 (bispecific antibody, human IgG1, kappa)
heavy: not shown
light: B1 light 2
notes: also called symmetrical anti-VEGF/TIGIT bispecific antibody
B3: 70E11VH2VL4 (antibody, human IgG1, kappa, V domains shown)
VH: QVQLVQSGAEVKKPGASVKVSCKASGYTFTSYNVHWVRQAPGQGLEWMGTIYPGNLATSYNQKFKGRVTLTADTSTSTVYMELSSLRSEDTAVYYCARSGTMDYWGQGTTVTVSS
VL: EIVLTQSPGTLSLSPGERATMTCRASSSISSTYLHWYQQKPGASPKLLIYNTQNLASGVPARFSGSGSGTSYTLTISRLEPEDFAVYYCQQFGGYPLITFGAGTKLELKR
notes: Humanized anti-TIGIT antibody, human IgG1 and kappa constant regions; also called anti-TIGIT antibody 70E11VH2VL4; monospecific anti-TIGIT antibody
B4: bevacizumab (antibody, V domains shown)
VH: EVQLVESGGGLVQPGGSLRLSCAASGYTFTNYGMNWVRQAPGKGLEWVGWINTYTGEPTYAADFKRRFTFSLDTSKSTAYLQMNSLRAEDTAVYYCAKYPHYYGSSHWYFDVWGQGTLVTVSS
VL: DIQMTQSPSSLSASVGDRVTITCSASQDISNYLNWYQQKPGKAPKVLIYFTSSLHSGVPSRFSGSGSGTDFTLTISSLQPEDFATYYCQQYSTVPWTFGQGTKVEIKR
notes: also called Avastin bevacizumab

Experiments:
[1] = biological target: T1, human TIGIT on HEK293A/human TIGIT cells; test: cell-based or functional assay
[2] = biological target: T1, human TIGIT on HEK293A/human TIGIT cells; test: FACS on HEK293A/human TIGIT cells, antibody titrated, MFI
Protocol: (§1) Briefly, 10⁵ HEK293A cells in 100 μl cell culture medium were seeded onto a 96-well plate, which was later added with 50 μl serially diluted bispecific antibodies of the disclosure. After incubation at 4° C. for 1 h, the plate was washed with PBS for three times, added with APC-goat-anti-mouse IgG (1:500, Cat #: 405308, BioLegend, USA). After incubation at 4° C. for 1 h, the plate was washed with PBS for three times, and measured for fluorescence using a cytometry (BD).

[3] = biological target: T5, monkey TIGIT on HEK293A/monkey TIGIT cells (monkey); test: FACS on HEK293A/monkey TIGIT cells, antibody titrated, MFI
T5 construct: also called cell surface monkey TIGIT
Protocol: as §1

[4] = biological target: T6, human VEGF-A molecules (Cat #:11066-HNAN, Sino Biological) (human, UniProt P15692-4 27-191); test: SPR (BIAcore 8K), human VEGF-A coupled to the chip, antibody injected
T6 construct: Bought protein; also called human/monkey VEGF; VEGF molecules
From the text: (§2) Using BIAcore™ 8K instrument (GE Life Sciences, US), the binding affinity of the bispecific molecules of the disclosure to human TIGIT and VEGF was quantitatively measured. Briefly, 100-200 response units (RU) of human TIGIT-his protein (Cat #:10917-H08H, Sino Biological, CN) or human VEGF-A (Cat #:11066-HNAN, Sino Biological, CN) were coupled to CMS biosensor chips (Cat #:BR-1005-30, GE Life Sciences, US). The un-reacted groups were then blocked with 1M ethanolamine Serially diluted antibodies at concentrations ranging from 0.3 μM to 10 μM were injected into the SPR running buffer (HBS-EP buffer, pH7.4, Cat #:BR-1006-69, GE Life Sciences, US) at 30 μL/min. The binding affinity was calculated with the RUs of blank controls subtracted, and the association rate (kₐ) and dissociation rate (kd) were determined using the one-to-one Langmuir binding model (BIA Evaluation Software, GE Life Sciences, US). The equilibrium dissociation constant KD was calculated as the kd/kₐ ratio.

[5] = biological target: T6, human VEGF-A molecules (Cat …); test: ELISA, plate coated with human VEGF-A, antibody titrated, OD450
Protocol: (§3) Briefly, an ELISA plate was coated with 100 μl 500 ng/ml human VEGF-A molecules (Cat #:11066-HNAN, Sino Biological, CN), mouse VEGF-A molecules (Cat #:50159-MNAB, Sino Biological, CN), human VEGF-B-his molecules (Cat #:VE6-H5225, Acrobiosystems Co., CN) and human VEGF-C-his molecules (Cat #:VEC-H4225, Acrobiosystems Co., CN) respectively overnight at 4° C. […] The ELISA plate was added with freshly prepared Ultra-TMB (Cat #:555214, BD, USA), and left still for 5 min for color development. The absorbance was read at 450 nm using SpectraMax® i3X microplate reader.

[6] = biological target: T2, human TIGIT-his protein (Cat …); test: SPR (BIAcore 8K), human TIGIT-his coupled to the chip, antibody injected
From the text: as §2

[7] = biological target: T1, human TIGIT on HEK293A/human TIGIT cells; test: FACS on HEK293A/human TIGIT cells, antibody titrated, no free VEGF-A
Protocol: as §1, with “of the disclosure and 50 μl free human VEGF-A molecules at the final concentration of 0 ng/ml, 50 ng/ml or 50 μg/ml (Cat #:11066-HNAN, Sino Biological, CN). After incubation” for “of the disclosure. After incubation”, “three times, and added with” for “three times, added with”

[8] = biological target: T1, human TIGIT on HEK293A/human TIGIT cells; test: as above; remark: listed apart in the source
Protocol: as §1, with “of the disclosure and 50 μl free human VEGF-A molecules at the final concentration of 0 ng/ml, 50 ng/ml or 50 μg/ml (Cat #:11066-HNAN, Sino Biological, CN). After incubation” for “of the disclosure. After incubation”, “three times, and added with” for “three times, added with”

[9] = biological target: T3, human VEGF-C-his molecules (Cat …); test: ELISA, plate coated with human VEGF-C-his, antibody titrated (axis labelled MFI)
Protocol: as §3

[10] = biological target: T1, human TIGIT on HEK293A/human TIGIT cells; test: FACS on HEK293A/human TIGIT cells, antibody titrated in the presence of 50 ng/ml free human VEGF-A
Protocol: as §1, with “of the disclosure and 50 μl free human VEGF-A molecules at the final concentration of 0 ng/ml, 50 ng/ml or 50 μg/ml (Cat #:11066-HNAN, Sino Biological, CN). After incubation” for “of the disclosure. After incubation”, “three times, and added with” for “three times, added with”

[11] = biological target: T1, human TIGIT on HEK293A/human TIGIT cells; test: FACS on HEK293A/human TIGIT cells, antibody titrated in the presence of 50 ug/ml free human VEGF-A
Protocol: as §1, with “of the disclosure and 50 μl free human VEGF-A molecules at the final concentration of 0 ng/ml, 50 ng/ml or 50 μg/ml (Cat #:11066-HNAN, Sino Biological, CN). After incubation” for “of the disclosure. After incubation”, “three times, and added with” for “three times, added with”

[12] = biological target: T4, TIGIT-mFc molecules (Cat #: 10917-H38H, …); test: FACS blocking assay: antibody titrated and premixed with 5 ug/ml TIGIT-mFc, binding of TIGIT-mFc to human PVR on A549/human PVR cells
Protocol: After incubation at 4° C. for 1 h, the plate was washed with PBS for three times, and then added with PE-goat-anti-mouse IgG (1:500, Cat #:31861, Thermofisher, USA). After incubation at 4° C. for 1 h, the plate was washed with PBS for three times, and measured for fluorescence using a cytometry (BD).

T6 sequence (P15692 other isoform, or with tags, fused parts or gaps limits assumed): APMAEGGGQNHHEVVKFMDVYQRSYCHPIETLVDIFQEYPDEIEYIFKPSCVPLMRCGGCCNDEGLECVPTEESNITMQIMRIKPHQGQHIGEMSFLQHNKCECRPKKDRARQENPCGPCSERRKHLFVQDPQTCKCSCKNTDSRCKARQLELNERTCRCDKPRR
T5 sequence (chain, as listed by the source limits assumed): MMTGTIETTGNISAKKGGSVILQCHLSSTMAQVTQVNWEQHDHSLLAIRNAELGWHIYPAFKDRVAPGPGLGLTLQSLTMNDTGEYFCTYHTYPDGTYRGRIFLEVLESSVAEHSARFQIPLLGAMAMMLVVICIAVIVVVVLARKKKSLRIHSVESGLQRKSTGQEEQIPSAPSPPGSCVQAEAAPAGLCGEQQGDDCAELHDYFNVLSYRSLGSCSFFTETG

Binder	EC50, NK92 (NK92MI-CD16a) cell-mediated ADCC, LDH release [1]	EC50, PBMC-mediated ADCC, death rate of GFP+ cells by FACS [1]	EC50 (read off the curve) [2]	EC50 (read off the curve) [3]	Kd [4]	EC50 (read off the curve) [5]	Kd [6]	EC50 (read off the curve) [7]	EC50 (read off the curve) [8]	binding result [9]	EC50 (read off the curve) [10]	EC50 (read off the curve) [11]	IC50 (read off the curve) [12]	binding result [5]
B1	0.268 nM	0.183 nM	~0.8 nM	~1 nM	0.166 nM	~0.6 nM	12.8 nM	~1 nM	~0.9 nM	no binding (tested: about 100 nM (LOG.Con about 2))	~1 nM	~0.8 nM	~4 nM	–
B2	–	–	–	–	–	–	–	–	–	–	–	–	–	binds
B3	0.142 nM	0.162 nM	~0.4 nM	~0.2 nM	–	–	8.05 nM	–	–	–	–	–	~2 nM	–
B4	–	–	–	–	–	–	–	–	–	no binding (tested: about 100 nM (LOG.Con about 2))	–	–	–	–
